{"source": "paper PMC4227728", "key": {"[1]": {"target": "ErbB2 ECD labeled with an infrared dye (human) (UniProt P04626)", "assay": "cross-linking"}, "[2]": {"target": "ErbB2 (as used in the ErbB2 ELISA of the Fab mutants) (human) (UniProt P04626)", "assay": "ELISA"}}, "data": [{"substance": "Herceptin Fab-VSF92", "values": [{"measurement": "percent of ErbB2 ECD cross-linked", "setting": "[1]", "value": 80, "unit": "%"}]}, {"substance": "Herceptin Fab-AcrK103", "values": [{"measurement": "fold reduction of binding against the WT Fab", "setting": "[2]", "value": 20, "unit": "fold"}]}]}
